Experimental findings from patent publication US20240301040A1 are described below.

Test [1] concerns the target IL-1 receptor (IL-1R) (rat) (UniProt Q02955). As to the kind of experiment: co-immunoprecipitation, adult ENV-expressing rats, hippocampal synaptosomes, mean±SEM.
Test [2] shares this target. As to the kind of experiment: co-immunoprecipitation, adult control rats, hippocampal synaptosomes, mean±SEM.

Sequence of UniProt Q02955 (Q02955 20-576): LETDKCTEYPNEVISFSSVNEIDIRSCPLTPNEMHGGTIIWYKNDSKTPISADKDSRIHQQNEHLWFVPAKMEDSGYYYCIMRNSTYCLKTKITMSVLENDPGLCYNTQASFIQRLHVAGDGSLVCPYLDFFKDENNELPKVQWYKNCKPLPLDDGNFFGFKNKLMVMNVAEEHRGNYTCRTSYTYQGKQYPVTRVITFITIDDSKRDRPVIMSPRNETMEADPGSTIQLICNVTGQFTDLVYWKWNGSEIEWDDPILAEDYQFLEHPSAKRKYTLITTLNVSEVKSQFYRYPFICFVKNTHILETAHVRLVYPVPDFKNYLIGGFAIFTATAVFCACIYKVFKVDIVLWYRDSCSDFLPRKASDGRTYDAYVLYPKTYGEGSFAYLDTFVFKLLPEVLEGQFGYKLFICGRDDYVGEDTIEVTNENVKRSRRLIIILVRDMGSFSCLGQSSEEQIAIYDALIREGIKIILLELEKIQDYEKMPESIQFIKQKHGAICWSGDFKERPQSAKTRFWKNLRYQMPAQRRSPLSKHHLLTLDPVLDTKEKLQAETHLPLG

For the substance “GluN2B-NMDAR (GluN2B-containing NMDA receptor) (from UniProt Q00960 27-1482)”, the co-IP GluN2B/IL-1R (normalised to control animals) amounted to 0.95 in test [1] and 1 in test [2].

On to “GluN2A-NMDAR (GluN2A-containing NMDA receptor) (from UniProt Q00959 23-1464)”, for which the co-IP GluN2A/IL-1R (normalised to control animals) in test [1] is 1.04; in test [2] it was 1.
